# Laboratory results published in publication PMC7482061.
# Experiments:
# Experiment in all cases: SEC; Superdex S200 10/300 GL, buffer A (20 mM Tris-HCl pH 7.5, 18% glycerol) with 150 mM NaCl; mass from calibration with standard proteins; quaternary structure of the purified protein
# [1] = molecular target: revRbr1 (CD1474), reverse rubrerythrin 1 of Clostridioides difficile (Clostridioides difficile (strain 630Δerm genomic DNA))
# [2] = molecular target: FdpA (CD1157), class A flavodiiron protein of Clostridioides difficile (Clostridioides difficile)
# [3] = molecular target: revRbr2 (CD1524), reverse rubrerythrin 2 of Clostridioides difficile (Clostridioides difficile (strain 630Δerm genomic DNA))
substance,measurement,setting,value
"revRbr1 (CD1474), reverse rubrerythrin 1 of Clostridioides difficile (enzyme)",stoichiometry N,[1],4
"FdpA (CD1157), class A flavodiiron protein of Clostridioides difficile (enzyme)",stoichiometry N,[2],2
"revRbr2 (CD1524), reverse rubrerythrin 2 of Clostridioides difficile (enzyme)",stoichiometry N,[3],4
